US20250084142A1 (INTARCIA THERAPEUTICS, published 2025)
Starred links: 1 amine or outer side, 2 acyl side, 3 side chain; linkers in the order of their positions; H or OH if unused. Positions of bridges follow the written chain, without caps; N, C: chain ends. Non-standard residues stand in square brackets, D forms with d. Groups on a side chain read outwards from the residue. No end group written: not given here. *: point of attachment. Phe(4-COOH) = N[C@@H](Cc1ccc(C(=O)O)cc1)C(=O)O; C20 diacid = O=C(O)CCCCCCCCCCCCCCCCCCC(=O)*; C19 diacid = O=C(O)CCCCCCCCCCCCCCCCCC(=O)*; C18 diacid = O=C(O)CCCCCCCCCCCCCCCCC(=O)*; γGlu = O=C(O)[C@H](CCC(=O)[*:2])N[*:1]

T1: NPY5R
T1 sequence (Q15761 1-445, species assumed, looked up): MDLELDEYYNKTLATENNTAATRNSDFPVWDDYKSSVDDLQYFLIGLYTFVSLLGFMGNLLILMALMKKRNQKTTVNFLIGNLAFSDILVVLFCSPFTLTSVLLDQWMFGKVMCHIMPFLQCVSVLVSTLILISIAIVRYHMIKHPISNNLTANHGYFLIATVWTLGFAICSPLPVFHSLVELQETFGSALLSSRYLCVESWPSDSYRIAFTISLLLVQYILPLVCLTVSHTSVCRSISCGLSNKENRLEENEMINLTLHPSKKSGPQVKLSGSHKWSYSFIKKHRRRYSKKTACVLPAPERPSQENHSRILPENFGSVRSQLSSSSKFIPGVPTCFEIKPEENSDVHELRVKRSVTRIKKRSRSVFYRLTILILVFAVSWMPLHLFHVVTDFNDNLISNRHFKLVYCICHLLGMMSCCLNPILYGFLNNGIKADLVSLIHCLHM

T2: NPY2R
T2 sequence (P49146 1-381, species assumed, looked up): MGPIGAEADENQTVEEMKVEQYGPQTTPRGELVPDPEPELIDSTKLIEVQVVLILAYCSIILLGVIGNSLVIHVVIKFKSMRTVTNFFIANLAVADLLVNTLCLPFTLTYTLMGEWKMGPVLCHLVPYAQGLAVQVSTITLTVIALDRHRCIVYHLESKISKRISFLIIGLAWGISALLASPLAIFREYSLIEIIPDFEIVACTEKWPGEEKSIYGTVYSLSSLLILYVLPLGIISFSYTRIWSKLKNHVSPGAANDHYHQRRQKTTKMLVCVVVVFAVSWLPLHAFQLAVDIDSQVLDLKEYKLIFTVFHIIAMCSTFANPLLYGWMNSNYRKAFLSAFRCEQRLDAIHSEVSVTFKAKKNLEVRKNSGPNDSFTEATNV


Columns and labels:
[1] = target: T1, NPY5R; test: cell-based or functional assay
[2] = target: T2, NPY2R; test: cell-based or functional assay

Row | NPY5R pEC50 [1] | NPY2R pEC50 [2] | Binder
1 | 8.5 -Log(EC50, M) | 10.5 -Log(EC50, M) | PKPEAPGK([γGlu-γGlu-C20 diacid])DASPEEWKRYYEDLRHYLNWLTRQRF-NH2 (lactam 16-20) [Compound A43]
2 | 9.3 -Log(EC50, M) |  | PKPEKPGK([γGlu-γGlu-C20 diacid])DASPEEWSRYYKDLRHYLNWLTRQRF-NH2 (N-terminus assumed; SMILES CC(C)C[C@H](NC(=O)[C@H](CC(=O)O)NC(=O)[C@H](CCCCN)NC(=O)[C@H](Cc1ccc(O)cc1)NC(=O)[C@H](Cc1ccc(O)cc1)NC(=O)[C@H](CCCNC(=N)N)NC(=O)[C@H](CO)NC(=O)[C@H](Cc1c[nH]c2ccccc12)NC(=O)[C@H](CCC(=O)O)NC(=O)[C@H](CCC(=O)O)NC(=O)[C@@H]1CCCN1C(=O)[C@H](CO)NC(=O)[C@H](C)NC(=O)[C@H](CC(=O)O)NC(=O)[C@H](CCCCNC(=O)CC[C@H](NC(=O)CC[C@H](NC(=O)CCCCCCCCCCCCCCCCCCC(=O)O)C(=O)O)C(=O)O)NC(=O)CNC(=O)[C@@H]1CCCN1C(=O)[C@H](CCCCN)NC(=O)[C@H](CCC(=O)O)NC(=O)[C@@H]1CCCN1C(=O)[C@H](CCCCN)NC(=O)[C@@H]1CCCN1)C(=O)N[C@@H](CCCNC(=N)N)C(=O)N[C@@H](Cc1c[nH]cn1)C(=O)N[C@@H](Cc1ccc(O)cc1)C(=O)N[C@@H](CC(C)C)C(=O)N[C@@H](CC(N)=O)C(=O)N[C@@H](Cc1c[nH]c2ccccc12)C(=O)N[C@@H](CC(C)C)C(=O)N[C@H](C(=O)N[C@@H](CCCNC(=N)N)C(=O)N[C@@H](CCC(N)=O)C(=O)N[C@@H](CCCNC(=N)N)C(=O)N[C@@H](Cc1ccccc1)C(N)=O)[C@@H](C)O) [Compound A75]
3 | 9.2 -Log(EC50, M) | 9.7 -Log(EC50, M) | PKPEAPGK([γGlu-γGlu-C20 diacid])DASPEEWKRYYDDLRHYLNWLTRQRF-NH2 (lactam 16-20) [Compound A44]
4 | 6 -Log(EC50, M) |  | PKPEAPGK([γGlu-γGlu-C20 diacid])DASPEEWNRYYADLRHYLNWLTRQR[Phe(4-COOH)]-NH2 [Compound A59]
5 | 9.1 -Log(EC50, M) | 10.3 -Log(EC50, M) | PKPEAPGK([γGlu-γGlu-C20 diacid])DASPEEWDRYYKDLRHYLNWLTRQRF-NH2 (lactam 16-20) [Compound A42]

Continued, binder first:

Row | Binder | NPY5R pEC50 [1] | NPY2R pEC50 [2]
6 | PKPEK([γGlu-γGlu-C18 diacid])PGEDASPKEWNRYYKDLRHYLNWLTRQRF-NH2 (N-terminus assumed; SMILES CC(C)C[C@H](NC(=O)[C@H](CC(=O)O)NC(=O)[C@H](CCCCN)NC(=O)[C@H](Cc1ccc(O)cc1)NC(=O)[C@H](Cc1ccc(O)cc1)NC(=O)[C@H](CCCNC(=N)N)NC(=O)[C@H](CC(N)=O)NC(=O)[C@H](Cc1c[nH]c2ccccc12)NC(=O)[C@H](CCC(=O)O)NC(=O)[C@H](CCCCN)NC(=O)[C@@H]1CCCN1C(=O)[C@H](CO)NC(=O)[C@H](C)NC(=O)[C@H](CC(=O)O)NC(=O)[C@H](CCC(=O)O)NC(=O)CNC(=O)[C@@H]1CCCN1C(=O)[C@H](CCCCNC(=O)CC[C@H](NC(=O)CC[C@H](NC(=O)CCCCCCCCCCCCCCCCC(=O)O)C(=O)O)C(=O)O)NC(=O)[C@H](CCC(=O)O)NC(=O)[C@@H]1CCCN1C(=O)[C@H](CCCCN)NC(=O)[C@@H]1CCCN1)C(=O)N[C@@H](CCCNC(=N)N)C(=O)N[C@@H](Cc1c[nH]cn1)C(=O)N[C@@H](Cc1ccc(O)cc1)C(=O)N[C@@H](CC(C)C)C(=O)N[C@@H](CC(N)=O)C(=O)N[C@@H](Cc1c[nH]c2ccccc12)C(=O)N[C@@H](CC(C)C)C(=O)N[C@H](C(=O)N[C@@H](CCCNC(=N)N)C(=O)N[C@@H](CCC(N)=O)C(=O)N[C@@H](CCCNC(=N)N)C(=O)N[C@@H](Cc1ccccc1)C(N)=O)[C@@H](C)O) [Compound A38] | 8.4 -Log(EC50, M) | 
7 | PKPEK([γGlu-γGlu-C20 diacid])PGKDASPKEWNRYYKDLRHYLNWLTRQRF-NH2 (N-terminus assumed; SMILES CC(C)C[C@H](NC(=O)[C@H](CC(=O)O)NC(=O)[C@H](CCCCN)NC(=O)[C@H](Cc1ccc(O)cc1)NC(=O)[C@H](Cc1ccc(O)cc1)NC(=O)[C@H](CCCNC(=N)N)NC(=O)[C@H](CC(N)=O)NC(=O)[C@H](Cc1c[nH]c2ccccc12)NC(=O)[C@H](CCC(=O)O)NC(=O)[C@H](CCCCN)NC(=O)[C@@H]1CCCN1C(=O)[C@H](CO)NC(=O)[C@H](C)NC(=O)[C@H](CC(=O)O)NC(=O)[C@H](CCCCN)NC(=O)CNC(=O)[C@@H]1CCCN1C(=O)[C@H](CCCCNC(=O)CC[C@H](NC(=O)CC[C@H](NC(=O)CCCCCCCCCCCCCCCCCCC(=O)O)C(=O)O)C(=O)O)NC(=O)[C@H](CCC(=O)O)NC(=O)[C@@H]1CCCN1C(=O)[C@H](CCCCN)NC(=O)[C@@H]1CCCN1)C(=O)N[C@@H](CCCNC(=N)N)C(=O)N[C@@H](Cc1c[nH]cn1)C(=O)N[C@@H](Cc1ccc(O)cc1)C(=O)N[C@@H](CC(C)C)C(=O)N[C@@H](CC(N)=O)C(=O)N[C@@H](Cc1c[nH]c2ccccc12)C(=O)N[C@@H](CC(C)C)C(=O)N[C@H](C(=O)N[C@@H](CCCNC(=N)N)C(=O)N[C@@H](CCC(N)=O)C(=O)N[C@@H](CCCNC(=N)N)C(=O)N[C@@H](Cc1ccccc1)C(N)=O)[C@@H](C)O) [Compound A37] | 8.6 -Log(EC50, M) | 10.8 -Log(EC50, M)
8 | PKPEKPGK([γGlu-γGlu-C19 diacid])DASPKEWDRYYKDLRHYLNWLTRQRF-NH2 (lactam 16-20; N-terminus assumed; SMILES CC(C)C[C@H](NC(=O)[C@H](CC(=O)O)NC(=O)[C@@H]1CCCCNC(=O)C[C@H](NC(=O)[C@H](Cc2c[nH]c3ccccc23)NC(=O)[C@H](CCC(=O)O)NC(=O)[C@H](CCCCN)NC(=O)[C@@H]2CCCN2C(=O)[C@H](CO)NC(=O)[C@H](C)NC(=O)[C@H](CC(=O)O)NC(=O)[C@H](CCCCNC(=O)CC[C@H](NC(=O)CC[C@H](NC(=O)CCCCCCCCCCCCCCCCCC(=O)O)C(=O)O)C(=O)O)NC(=O)CNC(=O)[C@@H]2CCCN2C(=O)[C@H](CCCCN)NC(=O)[C@H](CCC(=O)O)NC(=O)[C@@H]2CCCN2C(=O)[C@H](CCCCN)NC(=O)[C@@H]2CCCN2)C(=O)N[C@@H](CCCNC(=N)N)C(=O)N[C@@H](Cc2ccc(O)cc2)C(=O)N[C@@H](Cc2ccc(O)cc2)C(=O)N1)C(=O)N[C@@H](CCCNC(=N)N)C(=O)N[C@@H](Cc1c[nH]cn1)C(=O)N[C@@H](Cc1ccc(O)cc1)C(=O)N[C@@H](CC(C)C)C(=O)N[C@@H](CC(N)=O)C(=O)N[C@@H](Cc1c[nH]c2ccccc12)C(=O)N[C@@H](CC(C)C)C(=O)N[C@H](C(=O)N[C@@H](CCCNC(=N)N)C(=O)N[C@@H](CCC(N)=O)C(=O)N[C@@H](CCCNC(=N)N)C(=O)N[C@@H](Cc1ccccc1)C(N)=O)[C@@H](C)O) [Compound A40] | 9 -Log(EC50, M) | 
9 | PKPEAPGK([γGlu-γGlu-C20 diacid])DASPEEWERYYKDLRHYLNWLTRQRF-NH2 (lactam 16-20) [Compound A41] | 9.3 -Log(EC50, M) | 10.5 -Log(EC50, M)
